Measurements taken from US20260356943 (published 2026).
Each block holds one binder with its values, some of them ahead of it.

Columns and labels:
human ROR1 [1] = molecular target: T1, human ROR1 (human, UniProt Q01973); assay: ELISA, stored 37C 2 weeks
human ROR1 [2] = molecular target: T1, human ROR1; assay: ELISA, stored 4C
human ROR1 [3] = molecular target: T1, human ROR1; assay: ELISA, stored 4C; remark: listed apart in the source
human ROR1 [4] = molecular target: T1, human ROR1; assay: ELISA, stored 40C 2 weeks
human B7-H3 [5] = molecular target: T2, human B7-H3 (human, UniProt Q5ZPR3); assay: ELISA, stored 4C
T2 chain: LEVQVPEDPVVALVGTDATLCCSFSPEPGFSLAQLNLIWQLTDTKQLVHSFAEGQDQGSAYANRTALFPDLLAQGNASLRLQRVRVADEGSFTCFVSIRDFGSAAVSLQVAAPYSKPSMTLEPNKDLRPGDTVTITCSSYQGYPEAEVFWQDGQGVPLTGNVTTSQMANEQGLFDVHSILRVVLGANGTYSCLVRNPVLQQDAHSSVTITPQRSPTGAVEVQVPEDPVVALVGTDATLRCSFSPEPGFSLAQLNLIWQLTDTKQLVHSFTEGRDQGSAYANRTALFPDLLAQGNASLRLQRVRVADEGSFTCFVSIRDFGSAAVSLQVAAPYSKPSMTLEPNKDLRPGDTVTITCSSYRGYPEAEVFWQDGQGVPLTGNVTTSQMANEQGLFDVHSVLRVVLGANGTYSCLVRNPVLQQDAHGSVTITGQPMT

human B7-H3 [6] = molecular target: T2, human B7-H3; assay: ELISA, stored 40C 2 weeks
human ROR1 [7] = molecular target: T1, human ROR1; assay: ELISA, human serum 7 days
human ROR1 [8] = molecular target: T1, human ROR1; assay: ELISA, dual-antigen capture ROR1/4-1BB
human ROR1 [9] = molecular target: T1, human ROR1; assay: ELISA, human serum 14 days
human ROR1 [10] = molecular target: T1, human ROR1; assay: ELISA, monkey serum 7 days
human ROR1 [11] = molecular target: T1, human ROR1; assay: ELISA, monkey serum 2 days
human ROR1 [12] = molecular target: T1, human ROR1; assay: ELISA, monkey serum 0 day
human ROR1 [13] = molecular target: T1, human ROR1; assay: ELISA, human serum 0 day
human ROR1 [14] = molecular target: T1, human ROR1; assay: ELISA, human serum 2 days
human ROR1 [15] = molecular target: T1, human ROR1; assay: ELISA, monkey serum 14 days
human ROR1 [16] = molecular target: T1, human ROR1; assay: ELISA, monkey serum 3 days
human ROR1 [17] = molecular target: T1, human ROR1; assay: ELISA, human serum 3 days
human ROR1 [18] = molecular target: T1, human ROR1; assay: SPR, 25C, bivalent analyte
human 4-1BB = human 4-1BB (human, UniProt Q07011); assay: SPR, 25C
Sequence of human 4-1BB (Q07011 24-186): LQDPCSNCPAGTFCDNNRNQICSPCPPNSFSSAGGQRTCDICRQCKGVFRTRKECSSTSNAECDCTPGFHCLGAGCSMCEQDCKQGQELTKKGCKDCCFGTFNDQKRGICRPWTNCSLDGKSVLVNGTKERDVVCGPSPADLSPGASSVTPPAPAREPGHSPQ

T1 sequence (Q01973 30-403): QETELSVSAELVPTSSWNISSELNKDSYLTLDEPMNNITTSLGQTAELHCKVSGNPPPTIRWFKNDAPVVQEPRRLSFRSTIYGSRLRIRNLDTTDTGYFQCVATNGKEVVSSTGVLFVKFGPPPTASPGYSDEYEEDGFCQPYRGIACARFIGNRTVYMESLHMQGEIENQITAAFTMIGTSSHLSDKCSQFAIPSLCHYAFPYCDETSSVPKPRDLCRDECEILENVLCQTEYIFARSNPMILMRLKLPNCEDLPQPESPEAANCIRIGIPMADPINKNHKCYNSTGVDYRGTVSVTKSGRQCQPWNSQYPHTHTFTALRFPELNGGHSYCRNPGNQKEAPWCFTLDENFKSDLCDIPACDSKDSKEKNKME

B1: BA6M11 IgG (antibody, V domains shown)
VH: EVQLLESGGGLVQPGGSLRLSCAASGFTFSNYDMSWVRQAPGKGLEWVSAIYHSGSSKYYADSVKGRFTISRDNSKNTLYLQMNSLRAEDTAVYYCARGGSGAWDTGFDYWGQGTLVTVSS
VL: QSVLTQPPSASGTPGQRVTISCSGSSSNIGSNDVSWYQQLPGTAPKLLIYYENNRPSGVPDRFSGSKSGTSASLAISGLRSEDEADYYCGAWDDSLSGYVFGGGTKLTVL
EC50 (human ROR1 [1]): 0.129 nM | EC50 (human ROR1 [2]): 0.166 nM

B5: BA6M11(NA)x1A10M12 ROR1 arm (antibody, V domains shown)
VH: EVQLLESGGGLVQPGGSLRLSCAASGFTFSNYDMSWVRQAPGKGLEWVSAIYHSGSSKYYADSVKGRFTISRDNSKNTLYLQMNSLRAEDTAVYYCARGGSGAWDTGFDYWGQGTLVTVSS
VL: QSVLTQPPSASGTPGQRVTISCSGSSSNIGSNDVSWYQQLPGTAPKLLIYYENNRPSGVPDRFSGSKSGTSASLAISGLRSEDEADYYCGAWDDSLSGYVFGGGTKLTVL
EC50 (human ROR1 [7]): 0.236 nM | EC50 (human ROR1 [8]): 0.268 nM | EC50 (human ROR1 [9]): 0.233 nM | EC50 (human ROR1 [10]): 0.257 nM | EC50 (human ROR1 [16]): 0.238 nM | EC50 (human ROR1 [17]): 0.22 nM | Kd (human ROR1 [18]): 6.65 nM | EC50 (human ROR1 [12]): 0.208 nM | EC50 (human ROR1 [13]): 0.211 nM | EC50 (human ROR1 [15]): 0.273 nM

B6: BA6M11(WT)x1A10M12 ROR1 arm (antibody, V domains shown)
VH: EVQLLESGGGLVQPGGSLRLSCAASGFTFSNYDMSWVRQAPGKGLEWVSAIYHSGSSKYYADSVKGRFTISRDNSKNTLYLQMNSLRAEDTAVYYCARGGSGAWDTGFDYWGQGTLVTVSS
VL: QSVLTQPPSASGTPGQRVTISCSGSSSNIGSNDVSWYQQLPGTAPKLLIYYENNRPSGVPDRFSGSKSGTSASLAISGLRSEDEADYYCGAWDDSLSGYVFGGGTKLTVL
Kd (human ROR1 [18]): 6.05 nM

B9: BA6 IgG (WT) (antibody, V domains shown)
VH: EVQLLESGGGLVQPGGSLRLSCAASGFTFSNYDMSWVRQAPGKGLEWVSAIYHSGSSKYYADSVKGRFTISRDNSKNTLYLQMNSLRAEDTAVYYCARGGNGAWDTGFDYWGQGTLVTVSS
VL: QSVLTQPPSASGTPGQRVTISCSGSSSNIGSNDVSWYQQLPGTAPKLLIYYDNNRPSGVPDRFSGSKSGTSASLAISGLRSEDEADYYCGAWDDSLSGYVFGGGTKLTVL
EC50 (human ROR1 [1]): 0.261 nM | EC50 (human ROR1 [2]): 0.217 nM

B10: BA6M11(WT)x1A10M12 4-1BB arm (antibody, V domains shown)
VH: EVQLLESGGGLVQPGGSLRLSCAASGFTFSSYDMSWVRQAPGKCLEWVSWISYSGGSIYYADSVKGRFTISRDNSKNTLYLQMNSLRAEDTAVYYCARDAQRNSMREFDYWGQGTLVTVSS
VL: QSVLTQPPSASGTPGQRVTISCSGSSSNIGNNYVTWYQQLPGTAPKLLIYADSHRPSGVPDRFSGSKSGTSASLAISGLRSEDEADYYCATWDYSLSGYVFGCGTKLTVL
Kd (human 4-1BB): 4.53 nM

B11: BA6M11(NA)x1A10M12 4-1BB arm (antibody, V domains shown)
VH: EVQLLESGGGLVQPGGSLRLSCAASGFTFSSYDMSWVRQAPGKCLEWVSWISYSGGSIYYADSVKGRFTISRDNSKNTLYLQMNSLRAEDTAVYYCARDAQRNSMREFDYWGQGTLVTVSS
VL: QSVLTQPPSASGTPGQRVTISCSGSSSNIGNNYVTWYQQLPGTAPKLLIYADSHRPSGVPDRFSGSKSGTSASLAISGLRSEDEADYYCATWDYSLSGYVFGCGTKLTVL
Kd (human 4-1BB): 4.5 nM

Other lines, results leading:

EC50 (human ROR1 [3]): 0.141 nM | EC50 (human ROR1 [4]): 0.18 nM
B2: BA6xB5 ROR1 arm (antibody, V domains shown)
VH: EVQLLESGGGLVQPGGSLRLSCAASGFTFSNYDMSWVRQAPGKGLEWVSAIYHSGSSKYYADSVKGRFTISRDNSKNTLYLQMNSLRAEDTAVYYCARGGNGAWDTGFDYWGQGTLVTVSS
VL: QSVLTQPPSASGTPGQRVTISCSGSSSNIGSNDVSWYQQLPGTAPKLLIYYDNNRPSGVPDRFSGSKSGTSASLAISGLRSEDEADYYCGAWDDSLSGYVFGGGTKLTVL

EC50 (human B7-H3 [5]): 0.232 nM | EC50 (human B7-H3 [6]): 0.19 nM
B3: BA6M11xB5 B7-H3 arm (antibody, V domains shown)
VH: EVQLLESGGGLVQPGGSLRLSCAASGFTFSDYAMSWVRQAPGKCLEWVSSISSGSGSIYYADSVKGRFTISRDNSKNTLYLQMNSLRAEDTAVYYCAKNLIPLDYWGQGTLVTVSS
VL: QSVLTQPPSASGTPGQRVTISCSGSSSNIGSNAVSWYQQLPGTAPKLLIYYNSHRPSGVPDRFSGSKSGTSASLAISGLRSEDEADYYCGSWDASLNAYVFGCGTKLTVL

EC50 (human ROR1 [7]): 0.42 nM | EC50 (human ROR1 [8]): 0.386 nM | EC50 (human ROR1 [9]): 0.457 nM | EC50 (human ROR1 [10]): 0.427 nM | EC50 (human ROR1 [11]): 0.36 nM | EC50 (human ROR1 [12]): 0.24 nM | EC50 (human ROR1 [13]): 0.228 nM | EC50 (human ROR1 [14]): 0.365 nM | EC50 (human ROR1 [15]): 0.419 nM
B4: BA6x1A10M12 ROR1 arm (antibody, V domains shown)
VH: EVQLLESGGGLVQPGGSLRLSCAASGFTFSNYDMSWVRQAPGKGLEWVSAIYHSGSSKYYADSVKGRFTISRDNSKNTLYLQMNSLRAEDTAVYYCARGGNGAWDTGFDYWGQGTLVTVSS
VL: QSVLTQPPSASGTPGQRVTISCSGSSSNIGSNDVSWYQQLPGTAPKLLIYYDNNRPSGVPDRFSGSKSGTSASLAISGLRSEDEADYYCGAWDDSLSGYVFGGGTKLTVL

EC50 (human ROR1 [3]): 0.152 nM | EC50 (human ROR1 [4]): 0.134 nM
B7: BA6M11xB5 ROR1 arm (antibody, V domains shown)
VH: EVQLLESGGGLVQPGGSLRLSCAASGFTFSNYDMSWVRQAPGKGLEWVSAIYHSGSSKYYADSVKGRFTISRDNSKNTLYLQMNSLRAEDTAVYYCARGGSGAWDTGFDYWGQGTLVTVSS
VL: QSVLTQPPSASGTPGQRVTISCSGSSSNIGSNDVSWYQQLPGTAPKLLIYYENNRPSGVPDRFSGSKSGTSASLAISGLRSEDEADYYCGAWDDSLSGYVFGGGTKLTVL

EC50 (human B7-H3 [5]): 0.173 nM | EC50 (human B7-H3 [6]): 0.186 nM
B8: BA6xB5 B7-H3 arm (antibody, V domains shown)
VH: EVQLLESGGGLVQPGGSLRLSCAASGFTFSDYAMSWVRQAPGKCLEWVSSISSGSGSIYYADSVKGRFTISRDNSKNTLYLQMNSLRAEDTAVYYCAKNLIPLDYWGQGTLVTVSS
VL: QSVLTQPPSASGTPGQRVTISCSGSSSNIGSNAVSWYQQLPGTAPKLLIYYNSHRPSGVPDRFSGSKSGTSASLAISGLRSEDEADYYCGSWDASLNAYVFGCGTKLTVL
